Consider two molecules from patent US20070065425A1 (LABORATOIRE FRANCAIS DU FRACTIONNEMENT ET DES …, published 2007).

The labels stand for the following.
B1: BOIIB2 antibody (antibody, human IgG4, kappa, V domains shown)
VH: QVQLQESGPGLVKPSETLSLTCTVSGDSISDYYWSWIRQPPGKGLEWIGYFFYSGGSNYNPSLKSRVTMSVDTSKNQFSLKLGSVTAADTAVYYCARSQLRYYLDVWGQGTTVTVSS
VL: EIVLTQSPGTLSLSPGERATLSCRASQSVDSNYLAWYQQKPGQAPRVVIYGASNRATGIPDRFSGSGSGTEFTLTISRLDPEDFAVYYCQQYGSFFGQGTRLEIKR
notes: Human monoclonal IgG4 from a haemophilia A patient; also called anti-A2 antibody; FVIII anti-domain A2 BOIIB2 human antibody

For experiment [1], the target named is T1, Factor VIII fragment 379-546Mut (R484A, Y487A, R489A, P492A), tagged (UniProt P00451 398-565, labeled in vitro with L-(35S) methionine).
T1 construct: Produced in rabbit reticulocyte lysate
T1 sequence: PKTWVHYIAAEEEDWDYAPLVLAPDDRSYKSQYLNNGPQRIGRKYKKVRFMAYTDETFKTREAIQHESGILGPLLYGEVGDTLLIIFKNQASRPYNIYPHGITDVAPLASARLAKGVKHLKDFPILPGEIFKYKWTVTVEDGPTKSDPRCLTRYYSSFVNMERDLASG
The experiment in a line: immunoprecipitation of 35S-labelled fragment by BOIIB2 on Protein A Sepharose. Here is the method:
The immunoprecipitation of the transcribed genes is carried out as follows. Sample dilutions containing the specific antibodies are mixed with 40 up of Protein A Sepharose (Pharmacia) in 500 up of a suitable buffer, and the mixture is gently stirred for 1 hour at 4° C. The non-fixed antibodies are eliminated by means of a succession of centrifugations and washings. The complex antibody-Protein A Sepharose is resuspended in 300 up of buffer supplemented with 3 up of polypeptides of Factor VIII labeled in vitro with methionin L-(³⁵S), in order to incubate at 4° C. for 2 hours. The complexes antigens/antibodies are eluted from the beads by boiling for 3 minutes in 30 up of denaturating buffer and the radioactivity is counted. A second aliquot is analyzed by SDS-PAGE and visualized by autoradiography.
The fragments were immunoprecipitated by the human BOIIB2 antibody bound to Protein-A Sepharose. After washing, the complex was eluted and the radioactivity measured (in CPM) by scintillation and charged on SDS-PAGE, followed by an autoradiography. […] The anti-c-myc 9E10 antibody and the human plasma were used as positive and negative controls, respectively.

The experiment “BOIIB2 antibody” deals with B1. Kind of experiment: SPR (BIAcore), BOIIB2 immobilized on CM5, 30D1 as analyte. The procedure: The kinetics of fixation of the 30D1 anti-idiotypic antibody to the BOIIB2 inhibitor antibody was assessed by the method <<Surface plasmon resonance Biacore>> using the Pharmacia Biosensor BIAcore (Pharmacia Biosensor AB, Uppsala, Sweden). The BOIIB2 antibodies were immobilized on an activated surface of a probe CM5. The 30D1 anti-idiotypic antibodies were infused in several concentrations of immobilized BOIIB2 on the surface of the probe.
Background: In SPR one partner is held on a chip, and binding of the other changes the refractive index at the surface.

As to B1, the binding result in experiment [1] is listed as “no binding”.

B2: 30D1 monoclonal anti-idiotypic antibody (antibody, mouse IgG1, V domains shown)
VH: EVQLQQSGPELVKPGASMKISCKASGYSFTDYTMNWVKQSHGKNLEWIGLINPYNVISSYNQKFKGKATLTVDKSSSTAYMELLSLTSEDSAVYYCARKGYGSSMFAYWGQGTLVTVSA
VL: DIVMTQSHKFMSTSVGGRVSITCKASQDVTTAVAWYQQKPGQSPKLLIYSASYRYTGVPDRFTGSGSGTDFTFTFSSVQAEDLAVYYCQQHYSIPWTFGGGTKLEIKR
notes: Tested as hybridoma supernatant and Protein G purified (SPR); also called 30D1 anti-Id; 30DA1
By Kd is commonly meant the constant that tells how readily two partners part at equilibrium. Low readings indicate a tighter complex, high ones a looser complex. A word on the koff: it is a measure of how fast the partners let go of each other. For orientation: kon means the second-order rate constant of association. A high value points to faster complex formation. Regarding B2, in the experiment with BOIIB2 antibody, the Kd was ≤ 170 pM, the koff was ≤ 1e-05 s⁻¹ and the on-rate constant (kon) came to 60000 M⁻¹ s⁻¹.
